Experimental data: patent US20250352589A1, “OXYTOCIN-MIMETIC COMPOSITIONS AND USES THEREOF” (INSTITUT NATIONAL DE LA SANTÉ ET DE LA RECHERCHE MÉDICALE, priority 2021, published 2025)

Tested on: non-transfected HEK cells
Experiment: Negative control: activation of non-transfected HEK cells
Type: cell-based
Conditions: not given
Experimental: The activation of OT-R by bacterial peptides was analyzed by the measurement of calcium release from HEK cells transfected with human OT-R
As a negative control, no activation of non-transfected HEK cells with OT or bacterial peptides was observed.

Molecule	activation of non-transfected HEK cells
CC[C@H](C)[C@@H]1NC(=O)[C@H](Cc2ccc(O)cc2)NC(=O)[C@@H](N)CSSC[C@@H](C(=O)N2CCC[C@H]2C(=O)N[C@@H](CC(C)C)C(=O)NCC(N)=O)NC(=O)[C@H](CC(N)=O)NC(=O)[C@H](CCC(N)=O)NC1=O [OT, Oxytocin]	no activation

Tested on: anti-oxytocin antibodies
Experiment: Proteomic analysis: 2D gel and OT immunodetection (OT IgG) of bacterial proteomes
Type: binding
Conditions: 2D-immunoblotting, spots identified by mass spectrometry
Experimental: In this study, 14 bacteria-extracted proteomes were analyzed: (i) from 5 Bifidobacterium species grown in anaerobe conditions, (ii) from 5 Lactobacillus species grown in anaerobe culture conditions and (iii) from 4 aerotolerant Lactobacillus species grown in aerobe conditions. Each proteome analysis was performed in triplicate and was further separated in 3 fractions i.e. soluble (S), membrane (M), and residual (R) resulting in 9 samples/proteome). Each fraction was initially screened by western blot (WB) for the presence OT-like reactivity to validate it for further 2D-SDS-PAGE analysis. […] Finally, all fractions have been analyzed using 2D gel technique and OT immunodetection. 2D gel electrophoresis allowed to improve visibility of the less abundant proteins in a complex sample. Thereby, all samples were analyzed at least once with this method to scan optimally each proteome in the search for OT mimicry. […] The specificity for OT-like staining was controlled by pre-adsorption of OT-IgG with OT peptide.
All protein spots in silver nitrate staining gels corresponding to OT-like spots in the membrane were excised and analyzed by mass spectrometry

Molecule	immune cross-reaction with anti-oxytocin antibodies
Enolase 1 (protein, listed as Lactobacillus gasseri, enolase1, protein expressed by Lactobacillus gasseri) MLKSVIENVHALEIFDSRGNPTVEVFVTLSNGVVGKAEVPSGASTGENEAVELRDGGSRLGGKGVMNAVNNVNTEINDALKGLDPHDQPNIDATMIALDGTPNKGRLGANAILGVSMATACAAAKDNHQPLYRYLGGTDLEMPQTFHNVINGGEHADNGIDIQEFMITPVAKTSFRDGFEKIVNVYHTLKKVLEDMGYETGLGDEGGFAPNMKNSEEALKALHESIIKAGYKPGEDIAIACDCAASYFYNKEDGKYHLEGKVLTDEELADYYDKLLDEFPELISMEDPYDENDVEGMVKFTESHKDRIQIVLDDFICTNPKLLNKAIHEGAGNASLIKLNQIGTVTETLETIRLSRKNGYNTMISHRSGETGDTFIADFAVAVNGGQLKSGAPARSERVEKYNRLLEIEEELGKGERLAFFPDNVDLD	immune cross-react with anti-oxytocin antibodies
Phosphoketolase (protein, listed as Bifidobacterium dentium, phosphoketolase, protein expressed by Bifidobacterium dentium) MTSPVIGTPWKKLNAPVSEEAIEGVDKYWRAANYLSIGQIYLRSNPLMKEPFTREDVKHRLVGHWGTTPGLNFLIGHINRLIADHQQNTVIIMGPGHGGPAGTAQSYLDGTYTEYFPNITKDEAGLQKFFRQFSYPGGIPSHYAPETPGSIHEGGELGYALSHAYGAVMNNPSLFVPAIVGDGEAETGPLATGWQSNKLVNPRTDGIVLPILHLNGYKIANPTILSRISDEELHEFFHGMGYEPYEFVAGFDNEDHLSIHRRFAELFETVFDEICDIKAAAQTDDMTRPFYPMIIFRTPKGWTCPKFIDGKKTEGSWRSHQVPLASARDTEAHFEVLKNWLESYKPEELFDANGAVKPEVTAFMPTGELRIGENPNANGGRIREELNLPALEDYEVKEVAEYGHGWGQLEATRRLGVYTRDIIKNNPDSFRIFGPDETASNRLQAAYDVTNKQWDAGYLSAQVDEHMAVTGQVTEQLSEHQMEGFLEAYLLTGRHGIWSSYESFVHVIDSMLNQHAKWLEATVREIPWRKPISSMNLLVSSHVWRQDHNGFSHQDPGVTSVLLNKCFNNDHVIGIYFPVDSNMLLAVAEKCYKSTDMINAIIAGKQPAATWLTLDEARAELEKGAAEWEWASTAKSNDEAQIVLASAGDVPAQEIMAAADKLDAMGIKFKVVNVVDLVKLQSTKENDEAISDADFADLFTEDKPVLFAYHSYARDVRGLIYDRPNHDNFNVHGYEEQGSTTTPYDMVRVNNIDRYELVAEALRMIDADKYADKIDELEAFRKEAFQFAVDNGYDHPDYTDWVYSGVNTNKQGAVSATAATAGDNE	immune cross-react with anti-oxytocin antibodies
2,3-bisphosphoglycerate-dependent phosphoglycerate mutase (protein, listed as Lactobacillus camelliae, 2,3-bisphosphoglycerate-dependent phosphoglycerate mutase, protein expressed by Lactobacillus camelliae) MAKLVLIRHGQSEWNLSNQFTGWVDVDLSEKGTEEAKEAGRRIKKAGLEFDQAYTSVLTRAIKTLHYALEESDQLWIPETKTWRLNERHYGALQGQNKAEAAKKWGDEQVHIWRRSYDTLPPLLSADDEGSAAKDRRYANLDPRIIPGGENLKVTLERVIPFWEDHIAPDLLDGKNVIIAAHGNSLRALTKYIENISDEDIINLEMTTGEPVVYTFNDKLEVTDKVKLSK	immune cross-react with anti-oxytocin antibodies
Glutamine-fructose-6-phosphate aminotransferase (protein, listed as Lactobacillus plantarum, Glutamine-fructose-6-phosphate aminotransferase, protein expressed by Lactobacillus plantarum) MCGIVGVTGKDSAVSILLNGLEKLEYRGYDSAGIYVNDQDGHDYLVKEKGRIDDLRKEVGEAVHGSTGIGHTRWATHGEPSVANAHPQVSADGRFYLVHNGVIENFEDLKQTYLSDVTFKSQTDTEVIVQLVDRFVTKEGLSTLAAFRKTLGLLGHSSYGFLLMDKEDPDTLYVAKNKSPLLIGVGEGFNVVCSDSLAMLDQTKDFLELHDGEIVVVKPDEIKITNQAGEPVERKPFHVDIDAAQADKGTYPFYMLKEIDEQPNVMRKLSQVYLNDAGDPIINDDLLTALKAADRLYIVAAGTSYHAGLVGAKLFESLANVPTEVHVSSEFAYNQPLLSAHPFFIFLTQSGETADSREVLLNVNDQHFPSLTITNVPNSTLSREATYTLLLHAGPEIAVASTKAYTAQIALQAILAKALGVAVDQPAATAFDVKQQLALVANGMQSLVDEKATFEKIAKSALLNTPNAFYIGRGLDYAVSLETALKLKEISYVQAEGFASGELKHGTIALIEKDTPVIGIITQKNTAGLTRSNLQEVAARGAKTVTIVTDSLAKDGDTVILPTVDERLTALLSVVPGQLLAYYTSLNKGLDVDKPRNLAKSVTVE	immune cross-react with anti-oxytocin antibodies
Phosphoglycerate kinase (protein, listed as Bifidobacterium dentium, Phosphoglycerate kinase, protein expressed by Bifidobacterium dentium) MKTLKDLGDLKGKRVLVRADFNVPLDGTTITDDGRIKAALPTIKALREEGAKVILMAHLGRPKGKVVPELSLAPVATRLGELLGVEVPLASDTYGEDAQAKVAAMNDGDVVLLQNVRFNPEETSKDPEERAAYAKKIAALGEAFVSDGFGVVHRAQGSNYDVAADLPAAAGLLVEKEVKALSRATVDPERPLTVVLGGSKVSDKLGVIENLLDKADRLVIGGGMVYTFLKAKGLEVGTSLLEEDQVETVKGYIERAEKNGVELVLPTDIVVNPVFPKSDEDIAPEVVAADAIPADKMGLDIGPDSQKLFHDKIVDSKTVVWNGPMGVFEVPAFAAGTEAVAQGLVDATAAGAFTIVGGGDSASAVRNLGFPEDGFSHISTGGGASLEFLEGKELPGLKVLD	immune cross-react with anti-oxytocin antibodies
Prolable phosphoketolase (protein, listed as Bifidobacterium pseudolongum, Probable phosphoketolase, protein expressed by Bifidobacterium pseudolongum subsp. globosum) MTNPVIGTPWQKLDRPVSEEAIEGMDKYWRVTNYMSIGQIYLRSNPLMKEPFTRDDVKHRLVGHWGTTPGLNFLLAHINRLIADHQQNTVFIMGPGHGGPAGTSQSYVDGTYTEYYPNITKDEAGLQKFFRQFSYPGGIPSHFAPETPGSIHEGGELGYALSHAYGAVMNNPSLFVPCIIGDGEAETGPLATGWQSNKLVNPRTDGIVLPILHLNGYKIANPTILARISDEELHDFFRGMGYHPYEFVAGFDNEDHMSIHRRFAELFETIFDEICDIKAAAQTDDMTRPFYPMLIFRTPKGWTCPKFIDGKKTEGSWRAHQVPLASARDTEEHFEVLKGWLESYKPEELFNADGSIKDDVTAFMPKGDLRIGANPNANGGVIREDLKLPELDQYEVTGVKEYGHGWGQVEAPRSLGAYCRDIIKNNPDSFRIFGPDETASNRLNATYEVTDKQWDNGYLSSLVDEHMAVTGQVTEQLSEHQCEGFLEAYLLTGRHGIWSSYESFVHVIDSMLNQHAKWLEATVREIPWRKPISSVNLLVSSHVWRQDHNGFSHQDPGVTSVLINKTFNNDHVTNIYFATDANMLLAISEKCFKSTNKINAIFAGKQPAPTWITLDEARAELEAGAAEWKWASNAENNDEVQVVLAAAGDVPTQEIMAASDALNKMGIKFKVVNVVDLLKLQSRENNDEALTDEEFTDLFTADKPVLFAYHSYAQDVRGLIYDRPNHDNFNVVGYKEQGSTTTPFDMVRVNDMDRYALQAAALKMIDADKYADKIDELNAFRQKAFQFAVDNGYDIPEFTDWVYPDVKVDETQMLSATAATAGDNE	immune cross-react with anti-oxytocin antibodies
GMP synthase (protein, listed as Lactobacillus plantarum, GMP synthase, protein expressed by Lactobacillus plantarum) MAKTDTASFDSILVLDFGSQYNQLITRRIRDFGVYSELLPNTITAEEIKARHPKGIIFSGGPNSVYDDGAFRVDPEIFKLGLPILGICYGMQLMTYTLAGGKVESADNREYGKANIDVTSDSATLFKDTPAEQSVWMSHGDLVTQAPDGFDVVATSKNCPIAAIQDVDRKLYGIQFHAEVRNTDYGNDILRHFAFDVCQAEANWSMDDFIDMQIEKIRAEVGDKKVLLGLSGGVDSSVVGVLLHKAIGTQLTSIFVDHGLLRKGEADQVMASLEGKFGLNIIKVDAKDRFLSKLAGVSDPERKRKIIGNEFIQVFDEEATKLNGMEFLAQGTLYTDVIESGTSTAQTIKSHHNVGGLPEDMQFKLIEPLRTLFKDEARELGEKLGMPSDLVWRQPFPGPGLGIRVIGEITEDKLEIVRDSDFILRDEIKKAGLDREIWQYFTVLPGIKSVGVMGDGRTYDYTVGIRAVTSIDGMTADFARIPWDVLQKISVRIVNEVDHVNRIVYDVTSKPPSTIEWE	immune cross-react with anti-oxytocin antibodies

Molecular target: T1, human OT-R (Homo sapiens, UniProt P30559)
T1 construct: expressed in transfected cells; host or cells: HEK cells
T1 sequence (P30559 1-389): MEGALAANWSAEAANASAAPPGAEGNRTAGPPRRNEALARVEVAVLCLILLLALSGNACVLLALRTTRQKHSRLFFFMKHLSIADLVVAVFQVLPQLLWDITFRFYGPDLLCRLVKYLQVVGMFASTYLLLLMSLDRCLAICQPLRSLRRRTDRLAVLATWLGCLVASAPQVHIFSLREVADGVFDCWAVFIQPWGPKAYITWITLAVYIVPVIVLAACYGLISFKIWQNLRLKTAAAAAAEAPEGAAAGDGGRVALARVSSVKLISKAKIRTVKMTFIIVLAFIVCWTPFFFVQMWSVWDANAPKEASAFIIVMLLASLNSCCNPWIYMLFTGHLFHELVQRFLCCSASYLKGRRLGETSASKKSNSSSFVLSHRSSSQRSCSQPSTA
Experiment: Activation of OT-R by bacterial peptides: calcium release from HEK cells transfected with human OT-R
Type: cell-based
Conditions: OTR expressing HEK cells

Molecule	specific activation of OTR
CC[C@H](C)[C@@H]1NC(=O)[C@H](Cc2ccc(O)cc2)NC(=O)[C@@H](N)CSSC[C@@H](C(=O)N2CCC[C@H]2C(=O)N[C@@H](CC(C)C)C(=O)NCC(N)=O)NC(=O)[C@H](CC(N)=O)NC(=O)[C@H](CCC(N)=O)NC1=O [OT, Oxytocin]	specifically activated OTR
